Data: patent US20240051999A1 (JOHN INNES CENTRE, published 2024)

Tests used:
[1] = target: T1, UIM domain (C-terminal half with ubiquitin-interacting motifs) of Arabidopsis thaliana RPN10 (Arabidopsis thaliana, UniProt P55034 194-386); assay: yeast two-hybrid
T1 construct: domain: UIM domain
T1 sequence: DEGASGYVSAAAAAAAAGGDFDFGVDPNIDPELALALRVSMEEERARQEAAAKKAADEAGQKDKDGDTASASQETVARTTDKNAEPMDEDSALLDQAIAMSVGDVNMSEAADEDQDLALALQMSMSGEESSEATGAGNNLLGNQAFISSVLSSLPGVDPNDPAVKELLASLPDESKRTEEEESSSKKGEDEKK

[2] = target: T2, vWA (von Willebrand factor type A) domain of Arabidopsis thaliana RPN10 (Arabidopsis thaliana, UniProt P55034 1-193); assay: His-tag pull-down (iMAC), His-sumo-tagged vWA as bait
T2 construct: In Y2H it was a fusion to a GAL4 domain; also called AtvWA; AtRPN10 vWA domain
T2 sequence: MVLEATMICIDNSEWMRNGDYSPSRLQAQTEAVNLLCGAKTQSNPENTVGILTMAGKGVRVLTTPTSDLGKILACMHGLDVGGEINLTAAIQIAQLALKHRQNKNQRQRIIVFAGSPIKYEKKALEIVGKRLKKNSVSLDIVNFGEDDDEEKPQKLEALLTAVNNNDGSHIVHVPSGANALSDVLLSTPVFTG

B1: SAP05 (effector protein from AY-WB phytoplasma) (other)
chain: APNEEFVGDMRIVNVNLSNIDILKKHETFKKYFDFTLTGPRYNGNIAEFAMIWKIKNPPLNLLGVFFDDGTRDDEDDKYILEELKQIGNGAKNMYIFWQYEQK
notes: also called SAP05_AYWB; His-tagged SAP05
- binding result [1]: no binding

B2: ZnF (zinc-finger) domain of Arabidopsis thaliana SPL5 (other)
chain: SRLCQVDRCTVNLTEAKQYYRRHRVCEVHAKASAATVAGVRQRFCQQCSRFHELPEFDEAKRSCRRRLAGHNERRRKI
notes: domain: ZnF domain; Recombinant protein from E. coli; also called ZnF domain of AtSPL5
- binding result [2]: no binding
